Measurements published in patent US20230212319A1, “NOVEL ANTIGEN BINDING DOMAINS AND SYNTHETIC ANTIGEN RECEPTORS INCORPORATING THE SAME” (University of Southern California, priority 2020, published 2023).

Columns and labels:
SKOV3-Luc cells = assay: SKOV3 xenograft in NSG mice; conditions: for tumor inhibition / protection, SKOV3 xenograft: 1 × 10^6 SKOV3-Luc s.c., a week later 3 × 10^6 SAR-T i.v.; for survival, SKOV3 xenograft: mouse, in vivo
L363 cells = assay: JNG assay, co-culture with L363 cells; type: cell-based; conditions: co-culture with L363
In short: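 Jurkat-NFAT-GFP (JNG) cells stably expressing SAR constructs via lentiviral transduction and puromycin/blasticidin selection were cocultured with target cells at E:T ~1:2 for ~4–18 h. NFAT-driven GFP was measured by FACS versus parental JNG cells; scores +/- to 5+ denote ~5–50% GFP-positive cells.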

U266 cells = assay: JNG NFAT-GFP induction on co-culture with U266; type: cell-based

B1: 10453 (protein)
chain: MALPVTALLLPLALLLHAARPEVQLVESGGGLVQPGGSLRLSCAASGYTFTTYWMHWVRQAPGKGLEWVGYIRPSTGYTEYNQKFKDRFTISADTSKNTAYLQMNSLRAEDTAVYYCARSRWLLDYWGQGTLVTVSLEDLKNVFPPEVAVFEPSEAEISHTQKATLVCLATGFYPDHVELSWWVNGKEVHSGVCTDPQPLKEQPALNDSRYCLSSRLRVSATFWQNPRNHFRCQVQFYGLSENDEWTQDRAKPVTQIVSAEAWGRADCGFTSESYQQGVLSATILYEILLGKATLYAVLVSALVLMAMVKRKDSRGRAKRSGSGATNFSLLKQAGDVEENPGPTSMDWIWRILFLVGAATGAHSFEDIQMTQSPSSLSASVGDRVTITCKSSQSLLYSSNQKNYLAWFQQKPGKAPKLLIYWASTRESGVPSRFSGSGSGTDFTLTISSLQPEDFATYFCHQYLSSYTFGQGTKVEIKRTRIQNPDPAVYQLRDSKSSDKSVCLFTDFDSQTNVSQSKDSDVYITDKCVLDMRSMDFKSNSAVAWSNKSDFACANAFNNSIIPEDTFFPSPESSCDVKLVEKSFETDTNLNFQNLSVIGFRILLLKVAGFNLLMTLRLWSS
modifications: Synthetic Polynucloetide
For B1, the “tumor inhibition / protection, SKOV3 xenograft” value (“tumor inhibition / protection” for short) (SKOV3-Luc cells) was “tumor inhibition” and the “survival, SKOV3 xenograft” value (SKOV3-Luc cells) was “improvement in survival”.

B2: 10384 (protein)
chain: MALPVTALLLPLALLLHAARPDIQMTQSPSSLSASVGDRVTITCKSSQSVLYSSNQKNYLAWFQQKPGKAPKLLIYWASTRESGVPSRFSGSGSGTDFTLTISSLQPEDFATYFCHQYLSSYTFGQGTKVEIKRLEDLKNVFPPEVAVFEPSEAEISHTQKATLVCLATGFYPDHVELSWWVNGKEVHSGVCTDPQPLKEQPALNDSRYCLSSRLRVSATFWQNPRNHFRCQVQFYGLSENDEWTQDRAKPVTQIVSAEAWGRADCGFTSESYQQGVLSATILYEILLGKATLYAVLVSALVLMAMVKRKDSRGRAKRSGSGATNFSLLKQAGDVEENPGPTSMDWIWRILFLVGAATGAHSFEEVQLVESGGGLVQPGGSLRLSCAASGFTFTTYWMHWVRQAPGKGLEWVGYIRPSTGYTEYNQKFKDRFTISADTSKNTAYLQMNSLRAEDTAVYYCARSRWLLDYWGQGTLVTVSTRIQNPDPAVYQLRDSKSSDKSVCLFTDFDSQTNVSQSKDSDVYITDKCVLDMRSMDFKSNSAVAWSNKSDFACANAFNNSIIPEDTFFPSPESSCDVKLVEKSFETDTNLNFQNLSVIGFRILLLKVAGFNLLMTLRLWSS
modifications: Synthetic Polynucloetide
In the case of B2, the “tumor inhibition / protection” value (SKOV3-Luc cells) is reported as “tumor inhibition” and the “survival, SKOV3 xenograft” value (SKOV3-Luc cells) is reported as “improvement in survival”.

B3: 10380 (protein)
chain: MALPVTALLLPLALLLHAARPEVQLVESGGGLVQPGGSLRLSCAASGFTFTTYWMHWVRQAPGKGLEWVGYIRPSTGYTEYNQKFKDRFTISADTSKNTAYLQMNSLRAEDTAVYYCARSRWLLDYWGQGTLVTVSGGGGSGGGGSGGGGSDIQMTQSPSSLSASVGDRVTITCKSSQSVLYSSNQKNYLAWFQQKPGKAPKLLIYWASTRESGVPSRFSGSGSGTDFTLTISSLQPEDFATYFCHQYLSSYTFGQGTKVEIKRTREQKLISEEDLAKPTTTPAPRPPTPAPTIASQPLSLRPEACRPAAGGAVHTRGLDFACDIYIWAPLAGTCGVLLLSLVITLYCKRGRKKLLYIFKQPFMRPVQTTQEEDGCSCRFPEEEEGGCELRVKFSRSADAPAYQQGQNQLYNELNLGRREEYDVLDKRRGRDPEMGGKPRRKNPQEGLYNELQKDKMAEAYSEIGMKGERRRGKGHDGLYQGLSTATKDTYDALHMQALPPR
modifications: Synthetic Polynucloetide
In the case of B3, the “tumor inhibition / protection” value (SKOV3-Luc cells) is reported as “weak protection”.

B4: 22151 (protein)
chain: MALPVTALLLPLALLLHAARPMLPAPKNLVVSRITEDSARLSWTAPDAAFDSFPIRYIETLIWGEAIWLDVPGSERSYDLTGLKPGTEYAVVITGVKGGRFSSPLVASFTTGTGGGGSGGGGSGGGGSEFSYVLTQPPSVSVAPGQTARITCGGNNIGGKSVHWYQQPPGQAPVVVVYDDSDRPSGIPERFSGSNSGNTATLTISRVEAGDEAVYYCQVWDSSSDHVVFGGGTKLTVLLEDLKNVFPPEVAVFEPSEAEISHTQKATLVCLATGFYPDHVELSWWVNGKEVHSGVCTDPQPLKEQPALNDSRYCLSSRLRVSATFWQNPRNHFRCQVQFYGLSENDEWTQDRAKPVTQIVSAEAWGRADCGFTSESYQQGVLSATILYEILLGKATLYAVLVSALVLMAMVKRKDSRGRAKRSGSGATNFSLLKQAGDVEENPGPTSMDWIWRILFLVGAATGAHSFEQLQLQESGPGLVKPSETLSLTCTVSGGSISSSSYFWGWIRQPPGKGLEWIGSIYYSGITYYNPSLKSRVTISVDTSKNQFSLKLSSVTAADTAVYYCARHDGAVAGLFDYWGQGTLVTVSSATRIQNPDPAVYQLRDSKSSDKSVCLFTDFDSQTNVSQSKDSDVYITDKCVLDMRSMDFKSNSAVAWSNKSDFACANAFNNSIIPEDTFFPSPESSCDVKLVEKSFETDTNLNFQNLSVIGFRILLLKVAGFNLLMTLRLWSSRAKRSGSGVKQTLNFDLLKLAGDVESNPGPSRGHMTEYKPTVRLATRDDVPRAVRTLAAAFADYPATRHTVDPDRHIERVTELQELFLTRVGLDIGKVWVADDGAAVAVWTTPESVEAGAVFAEIGPRMAELSGSRLAAQQQMEGLLAPHRPKEPAWFLATVGVSPDHQGKGLGSAVVLPGVEAAERAGVPAFLETSAPRNLPFYERLGFTVTADVEVPEGPRTWCMTRKPGA
With B4 the “NFAT-GFP ASSAY: L363” value (L363 cells) was 2+ (refer to approximately 5%, 10%, 20%, 30%, 40% and 50% GFP positive cells) and the “NFAT-GFP ASSAY: U266” value (U266 cells) was 4+ (refer to approximately 5%, 10%, 20%, 30%, 40% and 50% GFP positive cells).

B5: 10311 (protein)
chain: MALPVTALLLPLALLLHAARPEVQLVESGGGLVQPGGSLRLSCAASGYTFTSYWLHWVRQAPGKGLEWVGYIRPSTGYTEYNQKFKDRFTISADTSKNTAYLQMNSLRAEDTAVYYCARSRWLLDYWGQGTLVTVSSGGGGSGGGGSGGGGSDIQMTQSPSSLSASVGDRVTITCKSSQSLLYSSNQKNYLAWFQQKPGKAPKLLIYWASTRESGVPSRFSGSGSGTDFTLTISSLQPEDFATYFCHQYLSSYTFGQGTKVEIKRTREQKLISEEDLAKPTTTPAPRPPTPAPTIASQPLSLRPEACRPAAGGAVHTRGLDFACDIYIWAPLAGTCGVLLLSLVITLYCKRGRKKLLYIFKQPFMRPVQTTQEEDGCSCRFPEEEEGGCELRVKFSRSADAPAYQQGQNQLYNELNLGRREEYDVLDKRRGRDPEMGGKPRRKNPQEGLYNELQKDKMAEAYSEIGMKGERRRGKGHDGLYQGLSTATKDTYDALHMQALPPR
modifications: Synthetic Polynucloetide
In the case of B5, the “tumor inhibition / protection” value (SKOV3-Luc cells) is reported as “weak protection”.

B6: 10522 (protein)
chain: MALPVTALLLPLALLLHAARPDIQMTQSPSSLSASVGDRVTITCRASQDISNYLNWYQQKPGKAPKLLIYYTSRLHSGVPSRFSGSGSGTDFTLTISSLQPEDFATYYCQQGNTLPYTFGQGTKVEIKRLEDLKNVFPPEVAVFEPSEAEISHTQKATLVCLATGFYPDHVELSWWVNGKEVHSGVCTDPQPLKEQPALNDSRYCLSSRLRVSATFWQNPRNHFRCQVQFYGLSENDEWTQDRAKPVTQIVSAEAWGRADCGFTSESYQQGVLSATILYEILLGKATLYAVLVSALVLMAMVKRKDSRGRAKRSGSGATNFSLLKQAGDVEENPGPTSMDWIWRILFLVGAATGAHSFEEVQLVESGGGLVQPGGSLRLSCAASGYTFSDYFMSWVRQAPGKGLEWVATISNGGTYTYYPDSVKGRFTISRDNSKNTLYLQMNSLRAEDTAVYYCARFDGYIFDYWGQGTLVTVSSTRIQNPDPAVYQLRDSKSSDKSVCLFTDFDSQTNVSQSKDSDVYITDKCVLDMRSMDFKSNSAVAWSNKSDFACANAFNNSIIPEDTFFPSPESSCDVKLVEKSFETDTNLNFQNLSVIGFRILLLKVAGFNLLMTLRLWSS
modifications: Synthetic Polynucloetide
In the case of B6, the “tumor inhibition / protection” value (SKOV3-Luc cells) is reported as “tumor inhibition” and the “survival, SKOV3 xenograft” value (SKOV3-Luc cells) is reported as “improvement in survival”.

B7: 10660 (protein)
chain: MALPVTALLLPLALLLHAARPDIQMTQSPSSLSASVGDRVTITCRASQDISNYLNWYQQKPGKAPKLLIYYTSRLHSGVPSRFSGSGSGTDFTLTISSLQPEDFATYYCQQGNTLPWTFGQGTKVEIKRLEDLKNVFPPEVAVFEPSEAEISHTQKATLVCLATGFYPDHVELSWWVNGKEVHSGVCTDPQPLKEQPALNDSRYCLSSRLRVSATFWQNPRNHFRCQVQFYGLSENDEWTQDRAKPVTQIVSAEAWGRADCGFTSESYQQGVLSATILYEILLGKATLYAVLVSALVLMAMVKRKDSRGRAKRSGSGATNFSLLKQAGDVEENPGPTSMDWIWRILFLVGAATGAHSFEEVQLVESGGGLVQPGGSLRLSCAASGFTFSDYFMSWVRQAPGKGLEWVATISNGGTYTYYPDSVKGRFTISRDNSKNTLYLQMNSLRAEDTAVYYCARFDGYIFDYWGQGTLVTVSSTRIQNPDPAVYQLRDSKSSDKSVCLFTDFDSQTNVSQSKDSDVYITDKCVLDMRSMDFKSNSAVAWSNKSDFACANAFNNSIIPEDTFFPSPESSCDVKLVEKSFETDTNLNFQNLSVIGFRILLLKVAGFNLLMTLRLWSS
modifications: Synthetic Polynucloetide
In the case of B7, the “tumor inhibition / protection” value (SKOV3-Luc cells) is reported as “tumor inhibition” and the “survival, SKOV3 xenograft” value (SKOV3-Luc cells) is reported as “improvement in survival”.

B8: 10591 (protein)
chain: MALPVTALLLPLALLLHAARPDIQMTQSPSSLSASVGDRVTITCRASQDISSYLNWYQQKPGKAPKLLIYYTSRLHSGVPSRFSGSGSGTDFTLTISSLQPEDFATYYCQQGNTLPYTFGQGTKVEIKRLEDLKNVFPPEVAVFEPSEAEISHTQKATLVCLATGFYPDHVELSWWVNGKEVHSGVCTDPQPLKEQPALNDSRYCLSSRLRVSATFWQNPRNHFRCQVQFYGLSENDEWTQDRAKPVTQIVSAEAWGRADCGFTSESYQQGVLSATILYEILLGKATLYAVLVSALVLMAMVKRKDSRGRAKRSGSGATNFSLLKQAGDVEENPGPTSMDWIWRILFLVGAATGAHSFEEVQLVESGGGLVQPGGSLRLSCAASGFTFSDYFMSWVRQAPGKGLEWVATISNGGTYTYYPDSVKGRFTISRDNSKNTLYLQMNSLRAEDTAVYYCARFDGYIFDYWGQGTLVTVSSTRIQNPDPAVYQLRDSKSSDKSVCLFTDFDSQTNVSQSKDSDVYITDKCVLDMRSMDFKSNSAVAWSNKSDFACANAFNNSIIPEDTFFPSPESSCDVKLVEKSFETDTNLNFQNLSVIGFRILLLKVAGFNLLMTLRLWSS
modifications: Synthetic Polynucloetide
With B8 the “tumor inhibition / protection” value (SKOV3-Luc cells) was “tumor inhibition” and the “survival, SKOV3 xenograft” value (SKOV3-Luc cells) was “improvement in survival”.
